Source: the RNAGym collection of RNA variant scans (doi:10.1093/molbev/msab373)

B1: Azoarcus group I ribozyme (parent)
chain: GUGCCUUGCGCCGGGAAACCACGCAAGGGAUGGUGUCAAAUUCGGCGAAACCUAAGCGCCCGCCCGGGCGUAUGGCAACGCCGAGCCAAGCUUCGGCGCCUGCGCCGAUGAAGGUGUAGAGACUAGACGGCACCCACCUAAGGCAAACGCUAUGGUGAAGGCAUAGUCCAGGGAGUGGCGAAAGUCACACAAACCGG

Variants of: B1
Experiment: reverse-splicing fitness (ratio to wild type); higher = more active; in vitro selection; Mg2+ level not given
Outline: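 An in vitro group I ribozyme library with randomized positions was T7-transcribed and gel-purified. In triplicate, 10 pmol RNA in EPPS pH 7.5 was reacted with 50 pmoles of a 30-nt RNA substrate for 1 h at 37 °C across several added MgCl2 levels (1–48 mM), then stopped with EDTA. Products were reverse transcribed from a substrate-complementary primer, PCR-amplified and sequenced (HiSeq 4000). Fitness is a variant's read proportion after selection over that before, normalised to wild type.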
In the case of GUGCCUUGCGCCGGGAAACCACGCAAGGGAUGGUGUCAAAUUCGGCGAAACCUAAGCGCCCGCCCGGGCGUAUGGCAACGCUGAGCCAAGCUUCGGCGCCUGCGCCGAUGGAGGUGUAGAGACUAGACGGCACCCACCUAAGGCUAACGUUAUGGUGAAGGCAUAGUCUAGGGAGGGGCGAAAGUCACACAAACCGG, the reverse-splicing fitness is reported as 0.0051.
For GUGCCUUGCGCCGGGAAACCACGCAAGGGAUGGUGUCAAAUUCGGCGAAACCUAAGCGCCCGCCCGGGCGUAUGGCAACGCUGAGCCAAGCUUCGGCGCCUGCGCCGAUGGAGGUGUAGAGACUAGACGGCACCCACCUAAGGCUAACGUUAUGGUGAAGGCAUAGUCUAGGGAGAGGCGAAAGUCACACAAACCGG, the reverse-splicing fitness was 0.0117.
In the case of GUGCCUUGCGCCGGGAAACCACGCAAGGGAUGGUGUCAAAUUCGGCGAAACCUAAGCGCCCGCCCGGGCGUAUGGCAACGCUGAGCCAAGCUUCGGCGCCUGCGCCGAUGGAGGUGUAGAGACUAGACGGCACCCACCUAAGGCUAACGUUAUGGUGAAGGCAUAGUCAAGGGAGGGGCGAAAGUCACACAAACCGG, the reverse-splicing fitness is reported as 0.00546.
In the case of GUGCCUUGCGCCGGGAAACCACGCAAGGGAUGGUGUCAAAUUCGGCGAAACCUAAGCGCCCGCCCGGGCGUAUGGCAACGCUGAGCCAAGCUUCGGCGCCUGCGCCGAUGGAGGUGUAGAGACUAGACGGCACCCACCUAAGGCUAACGUUAUGGUGAAGGCAUAGUCAAGGGAGAGGCGAAAGUCACACAAACCGG, the reverse-splicing fitness is reported as 0.0115.
Variant GUGCCUUGCGCCGGGAAACCACGCAAGGGAUGGUGUCAAAUUCGGCGAAACCUAAGCGCCCGCCCGGGCGUAUGGCAACGCUGAGCCAAGCUUCGGCGCCUGCGCCGAUGGAGGUGUAGAGACUAGACGGCACCCACCUAAGGCUAACGUUAUGGUGAAGGCAUAGUCAAGGGAGCGGCGAAAGUCACACAAACCGG has a reverse-splicing fitness of 0.00733.
GUGCCUUGCGCCGGGAAACCACGCAAGGGAUGGUGUCAAAUUCGGCGAAACCUAAGCGCCCGCCCGGGCGUAUGGCAACGCUGAGCCAAGCUUCGGCGCCUGCGCCGAUGGAGGUGUAGAGACUAGACGGCACCCACCUAAGGCUAACGUUAUGGUGAAGGCAUAGUCUAGGGAGUGGCGAAAGUCACACAAACCGG showed a reverse-splicing fitness of 0.0088.
Work on GUGCCUUGCGCCGGGAAACCACGCAAGGGAUGGUGUCAAAUUCGGCGAAACCUAAGCGCCCGCCCGGGCGUAUGGCAACGCUGAGCCAAGCUUCGGCGCCUGCGCCGAUGGAGGUGUAGAGACUAGACGGCACCCACCUAAGGCUAACGUUAUGGUGAAGGCAUAGUCAAGGGAGUGGCGAAAGUCACACAAACCGG yielded a reverse-splicing fitness of 0.00819.
Variant GUGCCUUGCGCCGGGAAACCACGCAAGGGAUGGUGUCAAAUUCGGCGAAACCUAAGCGCCCGCCCGGGCGUAUGGCAACGCUGAGCCAAGCUUCGGCGCCUGCGCCGAUGGAGGUGUAGAGACUAGACGGCACCCACCUAAGGCUAACGUUAUGGUGAAGGCAUAGUCGAGGGAGUGGCGAAAGUCACACAAACCGG has a reverse-splicing fitness of 0.00858.
In the case of GUGCCUUGCGCCGGGAAACCACGCAAGGGAUGGUGUCAAAUUCGGCGAAACCUAAGCGCCCGCCCGGGCGUAUGGCAACGCUGAGCCAAGCUUCGGCGCCUGCGCCGAUGGAGGUGUAGAGACUAGACGGCACCCACCUAAGGCUAACGGUAUGGUGAAGGCAUAGUCAAGGGAGUGGCGAAAGUCACACAAACCGG, the reverse-splicing fitness is reported as 0.00869.
GUGCCUUGCGCCGGGAAACCACGCAAGGGAUGGUGUCAAAUUCGGCGAAACCUAAGCGCCCGCCCGGGCGUAUGGCAACGCUGAGCCAAGCUUCGGCGCCUGCGCCGAUGGAGGUGUAGAGACUAGACGGCACCCACCUAAGGCUAACGGUAUGGUGAAGGCAUAGUCUAGGGAGUGGCGAAAGUCACACAAACCGG showed a reverse-splicing fitness of 0.00901.
In the case of GUGCCUUGCGCCGGGAAACCACGCAAGGGAUGGUGUCAAAUUCGGCGAAACCUAAGCGCCCGCCCGGGCGUAUGGCAACGCUGAGCCAAGCUUCGGCGCCUGCGCCGAUGGAGGUGUAGAGACUAGACGGCACCCACCUAAGGCUAACGGUAUGGUGAAGGCAUAGUCGAGGGAGUGGCGAAAGUCACACAAACCGG, the reverse-splicing fitness is reported as 0.00642.
GUGCCUUGCGCCGGGAAACCACGCAAGGGAUGGUGUCAAAUUCGGCGAAACCUAAGCGCCCGCCCGGGCGUAUGGCAACGCUGAGCCAAGCUUCGGCGCCUGCGCCGAUGGAGGUGUAGAGACUAGACGGCACCCACCUAAGGCUAACGGUAUGGUGAAGGCAUAGUCAAGGGAGAGGCGAAAGUCACACAAACCGG gave a reverse-splicing fitness of 0.00927.
In the case of GUGCCUUGCGCCGGGAAACCACGCAAGGGAUGGUGUCAAAUUCGGCGAAACCUAAGCGCCCGCCCGGGCGUAUGGCAACGCUGAGCCAAGCUUCGGCGCCUGCGCCGAUGGAGGUGUAGAGACUAGACGGCACCCACCUAAGGCUAACGGUAUGGUGAAGGCAUAGUCAAGGGAGGGGCGAAAGUCACACAAACCGG, the reverse-splicing fitness is reported as 0.00561.
For GUGCCUUGCGCCGGGAAACCACGCAAGGGAUGGUGUCAAAUUCGGCGAAACCUAAGCGCCCGCCCGGGCGUAUGGCAACGCUGAGCCAAGCUUCGGCGCCUGCGCCGAUGGAGGUGUAGAGACUAGACGGCACCCACCUAAGGCUAACGGUAUGGUGAAGGCAUAGUCAAGGGAGCGGCGAAAGUCACACAAACCGG, the reverse-splicing fitness was 0.00932.
GUGCCUUGCGCCGGGAAACCACGCAAGGGAUGGUGUCAAAUUCGGCGAAACCUAAGCGCCCGCCCGGGCGUAUGGCAACGCUGAGCCAAGCUUCGGCGCCUGCGCCGAUGGAGGUGUAGAGACUAGACGGCACCCACCUAAGGCUAACGUUAUGGUGAAGGCAUAGUCCAGGGAGUGGCGAAAGUCACACAAACCGG gave a reverse-splicing fitness of 0.276.
